Source: patent publication US20220348652A1 (ANTAIMMU BIOMED, published 2022)

How the values were obtained:
[1] = biological target: T1, human CD47 expressed on CHO-CD47 cells (human, UniProt Q08722 19-323); assay: flow cytometry, IgG on CHO-CD47 cells
T1 construct: whole, on cells; also called cellular CD47; full-length CD47
Experimental: The anti-CD47 scFvs were respectively expressed in their IgG formats in accordance with the procedure described in Materials and Methods. CHO cells expressing CD47 (CHO-CD47 cells) and wild-type CHO cells (CHO-WT cells) were respectively treated with anti-CD47 IgGs. After washing, the binding of the anti-CD47 IgGs was detected using a polyclonal APC-conjugated anti-human IgG antibody. Relative MFI was measured by flow cytometry. Antibody R23, a reference antibody constructed according to the sequences of ADI29341 disclosed in US20200181259A1, served as a positive control in this study.

[2] = biological target: T1, human CD47 expressed on CHO-CD47 cells; assay: flow cytometry on CHO-CD47 cells (MFI, FIG. 2)
Experimental: The binding of the anti-CD47 scFvs to the surface of CHO-CD47 cells was determined by flow cytometry, and the data was expressed as mean fluorescence intensity (MFI).

[3] = biological target: T2, human CD47 polypeptide (Met1-Pro139 of human CD47 fused with a Fc region) (human, UniProt Q08722 19-139); assay: single colony ELISA, scFv supernatant on coated CD47 polypeptide
T2 construct: range 1-139; Made in HEK293 cells and purified from the supernatant; also called CD47 protein; not shown: Fc region
Experimental: Phages were infected into E. coli host cells followed by plating the infected E. coli cells on agar plate. Each colony was picked up and cultured in 2×YT (yeast extract tryptone) medium containing 100 μg/ml ampicillin with vigorous shacking at 37° C. After OD₆₀₀ of the culture was greater than 1, isopropyl β-d-1-thiogalactopyranoside (IPTG) was added to each culture and the final concentration of IPTG was 1 mM. The cultures were incubated at 37° C. overnight, and then centrifuged 4,000×g for 10 minutes. The scFvs were secreted and collected from the supernatant. The collected scFvs were added onto a 96-well plate coated with CD47 polypeptide followed by the analysis of ELISA so as to determining the binding affinity of the selected scFvs and CD47 polypeptide.

[4] = biological target: T2, human CD47 polypeptide (Met1-Pro139 of …); assay: ELISA on coated CD47 polypeptide (FIG. 1)

EC50 [1] [µg/mL] | binding result [2] | binding result [3] | binding result [4] | Binder
4.18 | – | – | – | Antibody R23 (antibody, from another filing, V domains shown) VH: QVQLQESGPGLVKPSETLSLTCTVSGGSIEHYYWSWIRQPPGKGLEWIGYIYYSGSTNYNPSLKSRVTISVDTSKNQFSLKLSSVTAADTAVYYCARGKTGSAAWGQGTLVTVSS VL: DIQMTQSPSSVSASVGDRVTITCRASQGISRWLAWYQQKPGKAPKLLIYAASSLQSGVPSRFSGSGSGTDFTLTISSLQPEDFATYYCQQTVSFPITFGGGTKVEIKR
– | binds | binds | – | scFv CD47-20 (scFv, V domains shown, scFv) VL: DIQMTQSPSSLSASVGDRVTITCRASQDVHNKVAWYQQKPGKAPKLLIYYTSNLYSGVPSRFSGSGSGTDFTLTISSLQPEDFATYYCQQHFTYPLTFGQGTKVEIKR VH: EVQLVESGGGLVQPGGSLRLSCAASGFTISNYYIHWVRQAPGKGLEWVAGIWPSGGSTSYADSVKGRFTISADTSKNTAYLQMNSLRAEDTAVYYCTRGGYAMDYWGQGTLVTVSS
– | binds | – | binds | scFv CD47-6 (scFv, V domains shown, scFv) VL: DIQMTQSPSSLSASVGDRVTITCRASQDVSSRVAWYQQKPGKAPKLLIYYTSNLYSGVPSRFSGSGSGTDFTLTISSLQPEDFATYYCQQHFNYPLTFGQGTKVEIKR VH: EVQLVESGGGLVQPGGSLRLSCAASGFTITNWWIHWVRQAPGKGLEWVATISPYSGDTHYADSVKGRFTISADTSKNTAYLQMNSLRAEDTAVYYCARGGYAMDHWGQGTLVTVSS
– | binds | binds | – | scFv CD47-27 (scFv, V domains shown, scFv) VL: DIQMTQSPSSLSASVGDRVTITCRASQDVHNGVAWYQQKPGKAPKLLIFRTSWLLSGVPSRFSGSGSGTDFTLTISSLQPEDFATYYCQQGSSFPFTFGQGTKVEIKR VH: EVQLVESGGGLVQPGGSLRLSCAASGFTINNYWIHWVRQAPGKGLEWVARISPFDGGTYYADSVKGRFTISADTSKNTAYLQMNSLRAEDTAVYYCARGGYAMDLWGQGTLVTVSS
2.44 | – | – | – | CD47-7 IgG (antibody, V domains shown, IgG made in CHO cells; constant domains as for m19; also called antibody CD47-7) VH: EVQLVESGGGLVQPGGSLRLSCAASGFTITNYYIHWVRQAPGKGLEWVASIWPGYGNTGYADSVKGRFTISADTSKNTAYLQMNSLRAEDTAVYYCARGGYSMDFWGQGTLVTVSS VL: DIQMTQSPSSLSASVGDRVTITCRASQDVYTRVAWYQQKPGKAPKLLIYYTRNLYSGVPSRFSGSGSGTDFTLTISSLQPEDFATYYCQQAANYPLTFGQGTKVEIKR
– | binds | binds | – | scFv CD47-32 (scFv, V domains shown, scFv) VL: DIQMTQSPSSLSASVGDRVTITCRASQDVHYTVAWYQQKPGKAPKLLIYGTNRLYTGVPSRFSGSGSGTDFTLTISSLQPEDFATYYCQQHFNFPITFGQGTKVEIKR VH: EVQLVESGGGLVQPGGSLRLSCAASGFTINNFWIHWVRQAPGKGLEWVANISPFTGDTRYADSVKGRFTISADTSKNTAYLQMNSLRAEDTAVYYCARGGYAMDIWGQGTLVTVSS
– | binds | – | binds | scFv CD47-5 (scFv, V domains shown, scFv) VL: DIQMTQSPSSLSASVGDRVTITCRASQDVHNKVAWYQQKPGKAPKLLIYSATRLYPGVPSRFSGSGSGTDFTLTISSLQPEDFATYYCQQHFNYPLTFGQGTKVEIKR VH: EVQLVESGGGLVQPGGSLRLSCAASGFTITNYWIHWVRQAPGKGLEWVAHIWPGVGDTDYADSVKGRFTISADTSKNTAYLQMNSLRAEDTAVYYCARGGFAMDLWGQGTLVTVSS
– | binds | – | binds | scFv CD47-8 (scFv, V domains shown, scFv) VL: DIQMTQSPSSLSASVGDRVTITCRASQDVHYAVAWYQQKPGKAPKLLIYGTNRLYPGVPSRFSGSGSGTDFTLTISSLQPEDFATYYCQQHSNFPLTFGQGTKVEIKR VH: EVQLVESGGGLVQPGGSLRLSCAASGFTINNFYIHWVRQAPGKGLEWVASIWPWSGETGYADSVKGRFTIGADTSKNTAYLQMNSLRAEDTAVYYCARGGFAMDFWGQGTLVTVSS
2.34 | – | – | – | CD47-2 IgG (antibody, V domains shown, IgG made in CHO cells from the scFv; The VL-CL junction was not checked (VL ends in ...EIKR); also called antibody CD47-2) VH: EVQLVESGGGLVQPGGSLRLSCAASGFTISNSFIHWVRQAPGKGLEWVAYIWPWSGSTGYADSVKGRFTISADTSKNTAYLQMNSLRAEDTAVYYCARGGFSMDHWGQGTLVTVSS VL: DIQMTQSPSSLSASVGDRVTITCRASQDVSSKVAWYQQKPGKAPKLLIYGTNRLYPGVPSRFSGSGSGTDFTLTISSLQPEDFATYYCQQSSNYPLTFGQGTKVEIKR
– | binds | binds | – | scFv CD47-28 (scFv, V domains shown, scFv) VL: DIQMTQSPSSLSASVGDRVTITCRASQDVHGKVAWYQQKPGKAPKLLIYYARNLYSGVPSRFSGSGSGTDFTLTISSLQPEDFASYYCQQYFNFPLTFGQGTKVEIKR VH: EVQLVESGGGLVQPGGSLRLSCAASGFTITNWWIHWVRQAPGKGLEWVAEINPFGGNTYYADSVKGRFTISADTSKNTAYLQMNSLRAEDTAVYYCTRGGYAMDYWGQGTLVTVSS
– | binds | binds | – | scFv CD47-31 (scFv, V domains shown, scFv) VL: DIQMTQSPSSLSASVGDRVTITCRASQDVHSKVAWYQQKPGKAPKLLIYSTNRLYSGVPSRFSGSGSGTDFTLTISSLQPEDFATYYCQQHSNYPVTFGQGTKVEIKR VH: EVQLVESGGGLVQPGGSLRLSCAASGFTISNWWIHWVRQAPGKGLEWVAAINPFNGRTDYADSVKGRFTISADTSKNTAYLQMNSLRAEDTAVYYCTRGGYAMDYWGQGTLVTVSS
– | binds | binds | – | scFv CD47-29 (scFv, V domains shown, scFv) VL: DIQMTQSPSSLSASVGDRVTITCRASQDVHSKVAWYQQKPGKAPKLLIYSTNRLYPGVPSRFSGSGSGTDFTLTISSLQPEDFATYYCQQHFTYPLTFGQGTKVEIKR VH: EVQLVESGGGLVQPGGSLRLSCAASGFTITNWWIHWVRQAPGKGLEWVAGITPYSGDTYYADSVKGRFTISADTSKNTAYLQMNSLRAEDTAVYYCARGGYAIDNWGQGTLVTVSS
– | binds | – | binds | scFv CD47-14 (scFv, V domains shown, scFv) VL: DIQMTQSPSSLSASVGDRVTITCRASQDVSTKVAWYQQKPGKAPKLLIYFTRNLYSGVPSRFSGSGSGTDFTLTISSLQPEDFATYYCQQHSNYPVTFGQGTKVEIKR VH: EVQLVESGGGLVQPGGSLRLSCAASGFTISNWWIHWVRQAPGKGLEWVAGISPYSGKTDYADSVKGRFTISADTSKNTAYLQMNSLRAEDTAVYYCARGGYAMDLWGQGTLVTVSS
– | binds | – | binds | scFv CD47-9 (scFv, V domains shown, scFv) VL: DIQMTQSPSSLSASVGDRVTITCRASQDVSNRVAWYQQKPGKAPKLLIYGTNRLYTGVPSRFSGSGSGTDFTLTISSLQPEDFATYYCQQHFNYPITFGQGTKVEIKR VH: EVQLVESGGGLVQPGGSLRLSCAASGFTINSWWIHWVRQAPGKGLEWVAKISPFNGDTHYADSVKGRFTISADTSKNTAYLQMNSLRAEDTAVYYCARGGYAMDIWGQGTLVTVSS
– | binds | binds | – | scFv CD47-22 (scFv, V domains shown, scFv) VL: DIQMTQSPSSLSASVGDRVTITCRASQDVHSWVAWYQQKPGKAPKLLISRATWLASGVPSRFSGSGSGTDFTLTISSLQPEDFATYYCQQSSNFPLTFGQGTKVEIKR VH: EVQLVESGGGLVQPGGSLRLSCAASGFTINDYGIHWVRQAPGKGLEWVAGIGPFWGSTFYADSVKGRFTISADTSKNTAYLQMNSLRAEDTAVYYCARWMWGRWSAMDYWGQGTLVTVSS
– | binds | binds | – | scFv CD47-3 (scFv, V domains shown, scFv) VL: DIQMTQSPSSLSASVGDRVTITCRASQDVSNRVAWYQQKPGKAPKLLISRANGLASGVPSRFSGSGSGTDFTLTISSLQPEDFATYYCQQGSHFPITFGQGTKVEIKR VH: EVQLVESGGGLVQPGGSLRLSCAASGFTISNWWIHWVRQAPGKGLEWVAHIGPTVGKTYYADSVKGRFTISADTSKNTAYLQMNSLRAEDTAVYYCARGGFAMDHWGQGTLVTVSS
– | binds | – | binds | scFv CD47-4 (scFv, V domains shown, scFv) VL: DIQMTQSPSSLSASVGDRVTITCRASQSVDNGVAWYQQKPGKAPKLLIYSATRLYPGVLSRFSGSGSGTDFTLTISSLQPEDFATYYCQQSSTFPLTFGQGTKVEIKR VH: EVQLVESGGGLVQPGGSLRLSCAASGFTINDYWIHWVRQAPGKGLEWVAHIWPTYGGTHYADSVKGRFTISADTSKNTAYLQMNSLRAEDAAVYYCARGGYSLDIWGQGTLVTVSS
